Results reported in publication PMC6978714 (2019).
No end group written: not given here.

B1: thioredoxin-fused MBP 146-170 (MBP epitope library), biotinylated (peptide)
chain: DAQGTLSKIFKLGGRDSRSGSPMAR
modifications: not fully specified; also: thioredoxin-fused, end not given here, biotinylated chemically (EZ-Link Sulfo-NHS-LC-biotin, 1:20), position not given here
B2: thioredoxin-fused MBP 81-104 (MBP epitope library), biotinylated (peptide)
chain: TQDENPVVHFFKNIVTPRTPPPSQ
modifications: not fully specified; also: thioredoxin-fused, end not given here, biotinylated chemically (EZ-Link Sulfo-NHS-LC-biotin, 1:20), position not given here

Each binder was assayed against recombinant HLA-DRB1*01:01 protein (HLA-DR α chain with DRB1*01:01 β chain) (human).

Kd [nM] | Binder
101 | B1
52 | DAQGTLSKIFKLGGRDSRSGSPMAR (also: biotinylated, position not given here) [chemically synthesized biotinylated peptide MBP 146-170]
103 | B2
22 | TQDENPVVHFFKNIVTPRTPPPSQ (also: biotinylated, position not given here) [chemically synthesized biotinylated peptide MBP 81-104]
